Key:
[1] = biological target: Disintegrin and metalloproteinase domain-containing protein 9 (human) (UniProt Q13443); assay: co-IP with agarose-bound AvFc from H460 whole-cell lysate, mass spectrometry
[2] = biological target: CD109 antigen (Q6YHK3-4) (human) (UniProt Q6YHK3); assay: as above
[3] = biological target: Integrin beta-5 (human) (UniProt P18084); assay: as above
[4] = biological target: Metal transporter CNNM4 (human) (UniProt Q6P4Q7); assay: as above
[5] = biological target: Tetratricopeptide repeat protein 13 (Q8NBP0-2) (human) (UniProt Q8NBP0); assay: as above
[6] = biological target: Cation-independent mannose-6-phosphate receptor (human) (UniProt P11717); assay: as above
[7] = biological target: Serpin H1 (human) (UniProt P50454); assay: as above
[8] = biological target: Laminin subunit alpha-1 (human) (UniProt P25391); assay: as above
[9] = biological target: Contactin-associated protein 1 (human) (UniProt P78357); assay: as above
[10] = biological target: Transmembrane protein 106B (human) (UniProt Q9NUM4); assay: as above
[11] = biological target: Laminin subunit beta-1 (human) (UniProt P07942); assay: as above
[12] = biological target: Plexin-B2 (human) (UniProt O15031); assay: as above
[13] = biological target: Integrin alpha-V (human) (UniProt P06756); assay: as above
[14] = biological target: Cell cycle control protein 50A (human) (UniProt Q9NV96); assay: as above
[15] = biological target: Integrin alpha-5 (human) (UniProt P08648); assay: as above
[16] = biological target: Fibronectin (human) (UniProt P02751); assay: as above
[17] = biological target: Agrin (human) (UniProt O00468); assay: as above
[18] = biological target: Laminin subunit beta-2 (human) (UniProt P55268); assay: as above
[19] = biological target: Integrin alpha-3 (human) (UniProt P26006); assay: as above
[20] = biological target: Insulin-like growth factor 1 receptor (human) (UniProt P08069); assay: as above
[21] = biological target: Magnesium transporter protein 1 (human) (UniProt Q9H0U3); assay: as above
[22] = biological target: Solute carrier family 2, facilitated glucose transporter member 1 (human) (UniProt P11166); assay: as above
[23] = biological target: Prolow-density lipoprotein receptor-related protein 1 (human) (UniProt Q07954); assay: as above
[24] = biological target: Filamin-A (human) (UniProt P21333); assay: as above
[25] = biological target: Sodium/potassium-transporting ATPase subunit beta-1 (human) (UniProt P05026); assay: co-IP with agarose-bound AvFc from A549 whole-cell lysate, mass spectrometry
[26] = biological target: Adhesion G protein-coupled receptor L2 (human) (UniProt O95490); assay: as above
[27] = biological target: Integrin beta-5 (human) (UniProt P18084); assay: as above
[28] = biological target: Importin subunit beta-1 (human) (UniProt Q14974); assay: as above
[29] = biological target: Protocadherin Fat 1 (human) (UniProt Q14517); assay: as above
[30] = biological target: Sortilin-related receptor (human) (UniProt Q92673); assay: as above
[31] = biological target: Serpin H1 (human) (UniProt P50454); assay: as above
[32] = biological target: Transmembrane protein 106B (human) (UniProt Q9NUM4); assay: as above
[33] = biological target: Isoform 6 of Myoferlin (human) (UniProt Q9NZM1); assay: as above
[34] = biological target: Integrin alpha-V (human) (UniProt P06756); assay: as above
[35] = biological target: Transmembrane protein 131 (human) (UniProt Q92545); assay: as above
[36] = biological target: Laminin subunit beta-2 (human) (UniProt P55268); assay: as above
[37] = biological target: Integrin alpha-3 (human) (UniProt P26006); assay: as above
[38] = biological target: Insulin-like growth factor 1 receptor (human) (UniProt P08069); assay: as above
[39] = biological target: Multidrug resistance-associated protein 1 (human) (UniProt P33527); assay: as above

UniProt P18084, sequence (P18084 24-799 limits assumed): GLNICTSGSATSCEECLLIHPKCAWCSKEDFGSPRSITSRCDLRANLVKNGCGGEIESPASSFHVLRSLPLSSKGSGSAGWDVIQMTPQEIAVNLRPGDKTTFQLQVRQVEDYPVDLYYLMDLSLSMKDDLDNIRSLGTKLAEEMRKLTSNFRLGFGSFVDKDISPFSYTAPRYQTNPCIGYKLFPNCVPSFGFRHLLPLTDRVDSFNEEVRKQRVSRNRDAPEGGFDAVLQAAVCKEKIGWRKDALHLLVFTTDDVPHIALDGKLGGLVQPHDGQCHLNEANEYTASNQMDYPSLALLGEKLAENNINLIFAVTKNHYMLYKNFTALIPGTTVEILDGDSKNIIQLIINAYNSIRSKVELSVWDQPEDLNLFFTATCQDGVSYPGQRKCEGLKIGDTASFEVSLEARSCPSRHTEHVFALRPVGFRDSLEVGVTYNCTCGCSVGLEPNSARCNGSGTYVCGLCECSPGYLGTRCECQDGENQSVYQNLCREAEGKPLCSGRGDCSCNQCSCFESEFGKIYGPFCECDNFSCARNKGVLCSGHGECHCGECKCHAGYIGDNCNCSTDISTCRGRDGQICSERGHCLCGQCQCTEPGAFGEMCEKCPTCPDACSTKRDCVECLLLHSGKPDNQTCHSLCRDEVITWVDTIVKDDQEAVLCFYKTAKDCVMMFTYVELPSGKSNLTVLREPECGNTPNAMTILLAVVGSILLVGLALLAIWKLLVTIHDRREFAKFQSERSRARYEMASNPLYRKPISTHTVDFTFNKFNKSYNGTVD
UniProt P06756, sequence (P06756 other isoform, or with tags, fused parts or gaps limits assumed): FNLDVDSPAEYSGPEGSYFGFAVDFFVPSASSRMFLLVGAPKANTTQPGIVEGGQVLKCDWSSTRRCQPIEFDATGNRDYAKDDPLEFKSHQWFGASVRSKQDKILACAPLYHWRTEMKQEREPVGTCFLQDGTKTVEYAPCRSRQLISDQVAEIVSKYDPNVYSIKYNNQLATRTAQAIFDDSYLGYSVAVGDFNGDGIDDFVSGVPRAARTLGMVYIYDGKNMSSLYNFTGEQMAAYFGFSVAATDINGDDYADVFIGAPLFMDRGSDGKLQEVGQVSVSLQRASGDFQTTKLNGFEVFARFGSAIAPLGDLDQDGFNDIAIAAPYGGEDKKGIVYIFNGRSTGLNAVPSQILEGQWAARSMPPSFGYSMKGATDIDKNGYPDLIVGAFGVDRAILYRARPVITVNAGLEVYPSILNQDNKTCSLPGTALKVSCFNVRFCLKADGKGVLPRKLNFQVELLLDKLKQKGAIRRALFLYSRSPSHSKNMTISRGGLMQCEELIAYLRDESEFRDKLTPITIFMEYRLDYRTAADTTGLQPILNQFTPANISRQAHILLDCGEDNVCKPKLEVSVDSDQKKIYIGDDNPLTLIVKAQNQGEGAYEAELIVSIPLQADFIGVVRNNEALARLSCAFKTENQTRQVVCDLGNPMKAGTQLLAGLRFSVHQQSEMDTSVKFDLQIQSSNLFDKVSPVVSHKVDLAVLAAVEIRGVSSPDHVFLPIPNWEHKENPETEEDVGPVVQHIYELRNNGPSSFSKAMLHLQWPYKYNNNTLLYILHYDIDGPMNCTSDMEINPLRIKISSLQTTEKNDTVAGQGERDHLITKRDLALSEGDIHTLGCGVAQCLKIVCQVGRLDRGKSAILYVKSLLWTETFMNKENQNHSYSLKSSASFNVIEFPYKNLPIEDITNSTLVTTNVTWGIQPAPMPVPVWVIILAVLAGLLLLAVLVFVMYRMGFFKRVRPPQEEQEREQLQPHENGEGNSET
UniProt Q9NUM4, sequence (Q9NUM4 2-274 limits assumed): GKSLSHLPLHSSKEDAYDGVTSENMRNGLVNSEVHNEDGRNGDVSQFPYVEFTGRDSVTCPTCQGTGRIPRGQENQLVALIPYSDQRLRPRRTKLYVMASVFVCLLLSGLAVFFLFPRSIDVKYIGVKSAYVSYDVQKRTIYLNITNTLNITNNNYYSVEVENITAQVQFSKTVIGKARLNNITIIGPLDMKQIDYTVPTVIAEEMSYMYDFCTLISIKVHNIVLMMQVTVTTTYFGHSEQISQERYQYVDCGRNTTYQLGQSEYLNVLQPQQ
UniProt P26006, sequence (P26006 33-1051 limits assumed): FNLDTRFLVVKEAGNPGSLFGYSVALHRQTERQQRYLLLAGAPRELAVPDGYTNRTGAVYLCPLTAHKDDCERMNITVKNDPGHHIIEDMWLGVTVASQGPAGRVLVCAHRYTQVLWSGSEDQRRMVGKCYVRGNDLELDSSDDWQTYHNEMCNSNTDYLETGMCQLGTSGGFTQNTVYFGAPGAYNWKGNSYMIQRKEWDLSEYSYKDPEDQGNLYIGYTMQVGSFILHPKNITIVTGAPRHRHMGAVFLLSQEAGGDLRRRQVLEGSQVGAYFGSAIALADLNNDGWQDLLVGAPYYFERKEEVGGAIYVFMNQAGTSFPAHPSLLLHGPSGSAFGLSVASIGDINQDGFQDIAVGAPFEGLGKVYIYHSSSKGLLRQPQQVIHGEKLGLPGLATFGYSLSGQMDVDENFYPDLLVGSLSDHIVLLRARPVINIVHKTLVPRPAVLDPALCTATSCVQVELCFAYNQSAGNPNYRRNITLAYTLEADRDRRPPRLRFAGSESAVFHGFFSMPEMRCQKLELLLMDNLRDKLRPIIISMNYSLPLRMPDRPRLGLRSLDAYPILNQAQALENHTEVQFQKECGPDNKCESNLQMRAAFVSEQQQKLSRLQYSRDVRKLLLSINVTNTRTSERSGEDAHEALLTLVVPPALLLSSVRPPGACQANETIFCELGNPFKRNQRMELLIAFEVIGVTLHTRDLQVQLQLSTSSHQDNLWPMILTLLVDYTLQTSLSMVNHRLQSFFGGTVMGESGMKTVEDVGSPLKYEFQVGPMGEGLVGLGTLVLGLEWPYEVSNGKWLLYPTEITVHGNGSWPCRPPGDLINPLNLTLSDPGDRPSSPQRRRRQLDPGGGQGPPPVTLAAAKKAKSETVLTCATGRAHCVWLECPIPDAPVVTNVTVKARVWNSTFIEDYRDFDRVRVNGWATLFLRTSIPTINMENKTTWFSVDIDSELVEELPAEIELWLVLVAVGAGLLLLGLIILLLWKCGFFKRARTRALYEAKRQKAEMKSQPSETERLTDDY
UniProt P55268, sequence (P55268 33-1798 limits assumed): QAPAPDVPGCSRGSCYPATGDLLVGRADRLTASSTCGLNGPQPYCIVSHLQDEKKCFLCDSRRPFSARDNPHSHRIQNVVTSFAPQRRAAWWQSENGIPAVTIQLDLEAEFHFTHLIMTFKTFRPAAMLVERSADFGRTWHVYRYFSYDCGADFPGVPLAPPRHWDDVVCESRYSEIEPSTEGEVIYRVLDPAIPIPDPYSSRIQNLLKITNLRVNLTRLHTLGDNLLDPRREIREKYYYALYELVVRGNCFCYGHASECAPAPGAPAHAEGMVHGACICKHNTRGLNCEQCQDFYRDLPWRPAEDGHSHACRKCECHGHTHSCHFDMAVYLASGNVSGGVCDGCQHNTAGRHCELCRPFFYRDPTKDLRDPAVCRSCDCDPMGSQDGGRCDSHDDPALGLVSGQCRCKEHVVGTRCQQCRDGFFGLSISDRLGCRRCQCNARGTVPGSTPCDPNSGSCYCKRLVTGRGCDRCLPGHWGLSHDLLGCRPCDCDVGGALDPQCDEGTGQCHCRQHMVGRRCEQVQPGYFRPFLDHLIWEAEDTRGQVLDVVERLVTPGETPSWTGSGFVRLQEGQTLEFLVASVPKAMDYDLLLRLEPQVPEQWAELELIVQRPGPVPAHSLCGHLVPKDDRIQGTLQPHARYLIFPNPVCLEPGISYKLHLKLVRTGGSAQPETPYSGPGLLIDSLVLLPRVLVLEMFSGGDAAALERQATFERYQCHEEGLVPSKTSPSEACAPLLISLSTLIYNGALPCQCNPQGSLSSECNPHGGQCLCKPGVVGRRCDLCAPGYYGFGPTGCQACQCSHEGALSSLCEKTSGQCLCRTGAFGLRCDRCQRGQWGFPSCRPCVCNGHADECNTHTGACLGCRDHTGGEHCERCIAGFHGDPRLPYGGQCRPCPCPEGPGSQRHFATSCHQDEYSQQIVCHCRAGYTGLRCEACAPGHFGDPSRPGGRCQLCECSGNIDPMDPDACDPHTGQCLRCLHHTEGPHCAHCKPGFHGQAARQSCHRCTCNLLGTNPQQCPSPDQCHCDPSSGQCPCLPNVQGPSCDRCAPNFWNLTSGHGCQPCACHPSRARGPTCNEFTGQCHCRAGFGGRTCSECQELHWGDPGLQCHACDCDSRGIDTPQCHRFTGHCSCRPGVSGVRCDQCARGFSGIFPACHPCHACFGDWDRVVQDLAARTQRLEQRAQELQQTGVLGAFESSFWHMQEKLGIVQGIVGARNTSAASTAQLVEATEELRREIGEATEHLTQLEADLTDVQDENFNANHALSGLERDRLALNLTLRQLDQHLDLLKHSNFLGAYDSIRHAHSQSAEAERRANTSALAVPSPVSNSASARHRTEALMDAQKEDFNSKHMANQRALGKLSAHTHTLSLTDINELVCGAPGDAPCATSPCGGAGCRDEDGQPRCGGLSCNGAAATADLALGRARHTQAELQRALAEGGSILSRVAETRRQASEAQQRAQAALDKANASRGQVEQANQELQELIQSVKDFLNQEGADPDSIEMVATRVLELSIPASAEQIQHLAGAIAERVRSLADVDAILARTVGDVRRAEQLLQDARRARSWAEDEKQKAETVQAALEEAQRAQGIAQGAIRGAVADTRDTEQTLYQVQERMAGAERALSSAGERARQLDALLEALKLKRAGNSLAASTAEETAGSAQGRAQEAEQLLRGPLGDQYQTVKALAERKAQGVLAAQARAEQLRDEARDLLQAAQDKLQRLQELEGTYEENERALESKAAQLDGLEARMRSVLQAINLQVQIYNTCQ

Substance: Avaren-Fc (AvFc) (Fc fusion)
- Percentage of Total Spectra (%) [1]: 0.091%
- Percentage of Total Spectra (%) [2]: 0.13%
- Percentage of Total Spectra (%) [3]: 0.12%
- Percentage of Total Spectra (%) [4]: 0.083%
- Percentage of Total Spectra (%) [5]: 0.11%
- Percentage of Total Spectra (%) [6]: 0.44%
- Percentage of Total Spectra (%) [7]: 0.058%
- Percentage of Total Spectra (%) [8]: 0.35%
- Percentage of Total Spectra (%) [9]: 0.13%
- Percentage of Total Spectra (%) [10]: 0.11%
- Percentage of Total Spectra (%) [11]: 0.31%
- Percentage of Total Spectra (%) [12]: 0.13%
- Percentage of Total Spectra (%) [13]: 0.13%
- Percentage of Total Spectra (%) [14]: 0.033%
- Percentage of Total Spectra (%) [15]: 0.041%
- Percentage of Total Spectra (%) [16]: 0.21%
- Percentage of Total Spectra (%) [17]: 0.15%
- Percentage of Total Spectra (%) [18]: 0.16%
- Percentage of Total Spectra (%) [19]: 0.025%
- Percentage of Total Spectra (%) [20]: 0.033%
- Percentage of Total Spectra (%) [21]: 0.017%
- Percentage of Total Spectra (%) [22]: 0.033%
- Percentage of Total Spectra (%) [23]: 0.017%
- Percentage of Total Spectra (%) [24]: 0.13%
- Percentage of Total Spectra (%) [25]: 0.056%
- Percentage of Total Spectra (%) [26]: 0.091%
- Percentage of Total Spectra (%) [27]: 0.11%
- Percentage of Total Spectra (%) [28]: 0.056%
- Percentage of Total Spectra (%) [29]: 0.12%
- Percentage of Total Spectra (%) [30]: 0.12%
- Percentage of Total Spectra (%) [31]: 0.063%
- Percentage of Total Spectra (%) [32]: 0.098%
- Percentage of Total Spectra (%) [33]: 0.17%
- Percentage of Total Spectra (%) [34]: 0.15%
- Percentage of Total Spectra (%) [35]: 0.056%
- Percentage of Total Spectra (%) [36]: 0.056%
- Percentage of Total Spectra (%) [37]: 0.15%
- Percentage of Total Spectra (%) [38]: 0.091%
- Percentage of Total Spectra (%) [39]: 0.07%
